The record followed here is patent publication US20240132603A1 (HARBOUR BIOMED US, published 2024).

In general, EC50 refers to the midpoint of the concentration-response curve. By Kd is commonly meant the concentration at which binding is half-saturated.

One test deals with T1, human CCR8 (human, UniProt P51685 1-355).
T1 construct: whole, on cells; construct used for the overexpressing cell lines is not described; also called hCCR8
As to the kind of experiment: FACS, CHO-K1-hCCR8 cells. An outline of the steps: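 Flow cytometry measures antibody binding to the overexpressing cells. These are first incubated at 4 °C for 1 h with test antibody titrated 5-fold down from 200 nM, then for 40 min with secondary antibody diluted 1:1000.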
A general note: Flow cytometry measures light scatter and fluorescence of single cells or particles in a stream.

For test [1], the target named is T2, cynomolgus monkey CCR8 (cynomolgus monkey, UniProt G7NYJ2 1-355).
T2 construct: whole, on cells; also called CynoCCR8
T2 sequence (G7NYJ2 entry or part of it): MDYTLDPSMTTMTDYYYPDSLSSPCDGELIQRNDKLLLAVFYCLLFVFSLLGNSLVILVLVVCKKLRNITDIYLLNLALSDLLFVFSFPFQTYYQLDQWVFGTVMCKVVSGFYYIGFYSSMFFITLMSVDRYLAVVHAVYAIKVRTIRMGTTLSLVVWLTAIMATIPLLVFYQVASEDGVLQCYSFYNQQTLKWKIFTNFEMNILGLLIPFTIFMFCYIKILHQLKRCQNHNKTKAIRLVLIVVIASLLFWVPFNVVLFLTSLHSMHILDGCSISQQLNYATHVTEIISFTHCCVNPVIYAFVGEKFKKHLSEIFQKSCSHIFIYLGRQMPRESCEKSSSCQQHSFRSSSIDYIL
As to the kind of experiment: FACS, CHO-K1-CynoCCR8 cells. An outline of the steps: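 Anti-CCR8 antibodies titrated in 5-fold steps from 200 nM onto 1E6 cells/mL CHO-K1-CynoCCR8 in DPBS/2% FBS, 1 h at 4 °C. Bound antibody detected with 1:1000 secondary antibody, 40 min at 4 °C, then flow cytometry.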

The target of test [2] is T2, cynomolgus monkey CCR8. As to the kind of experiment: KinExA, cell line overexpressing monkey CCR8; monkey CCR8 cell line. As for the experimental part: To 200 mg of PMMA hard beads was added 30 μg of Goat Anti-Human IgG Fc antibody, and the mixture was supplemented with a coating solution to 1.0 mL, with a buffer composition of 1×PBS, pH7.4, to ensure that the beads were completely suspended in the solution. After being spun at room temperature for 2 h, the beads were either allowed to settle naturally or centrifuged briefly at low speed, and the supernatant was removed. 1 mL of blocking buffer (1×PBS, pH7.4, containing 10 mg/mL BSA) was added to ensure that the beads were resuspended in the blocking solution, and the beads were spun at room temperature for 1 h. An appropriate concentration of PR005565, PR006155 or PR006166 was used as the 100% signal value, and PBS blank was used as the background value. The net signal values were detected using 0.5 μg/mL Alexa Fluor® 647 Goat Anti-Human IgG. The cell line overexpressing human or monkey CCR8 was collected by centrifugation at 1500 g for 5 min, washed 2 times with 2 PBS and centrifuged at 350 g. The cells were collected in a 1.5 mL centrifuge tube. 10 mL of 0.2 nM PR005565, PR006155 or PR006166 solution was prepared. The total cells were supplemented with 0.2 nM PR005565, PR006155 or PR006166 solution to 0.82 mL, and diluted in a 2-fold gradient with 0.2 nM PR005565, PR006155 or PR006166 as a buffer. […]
Background: Kinetic exclusion samples the free partner from a solution-phase mixture.

T1 sequence (P51685 whole entry): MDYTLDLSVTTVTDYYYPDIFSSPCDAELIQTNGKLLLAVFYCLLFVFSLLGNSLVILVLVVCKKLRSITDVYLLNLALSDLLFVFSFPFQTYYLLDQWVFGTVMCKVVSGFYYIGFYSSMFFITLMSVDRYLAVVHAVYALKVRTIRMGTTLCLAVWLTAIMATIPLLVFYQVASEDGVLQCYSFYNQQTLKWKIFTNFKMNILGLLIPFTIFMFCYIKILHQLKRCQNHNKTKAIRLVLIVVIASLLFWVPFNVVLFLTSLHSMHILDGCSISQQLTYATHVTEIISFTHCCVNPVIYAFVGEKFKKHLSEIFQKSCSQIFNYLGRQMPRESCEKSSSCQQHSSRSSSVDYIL

B1: PR006166 (antibody, human IgG1, kappa)
heavy: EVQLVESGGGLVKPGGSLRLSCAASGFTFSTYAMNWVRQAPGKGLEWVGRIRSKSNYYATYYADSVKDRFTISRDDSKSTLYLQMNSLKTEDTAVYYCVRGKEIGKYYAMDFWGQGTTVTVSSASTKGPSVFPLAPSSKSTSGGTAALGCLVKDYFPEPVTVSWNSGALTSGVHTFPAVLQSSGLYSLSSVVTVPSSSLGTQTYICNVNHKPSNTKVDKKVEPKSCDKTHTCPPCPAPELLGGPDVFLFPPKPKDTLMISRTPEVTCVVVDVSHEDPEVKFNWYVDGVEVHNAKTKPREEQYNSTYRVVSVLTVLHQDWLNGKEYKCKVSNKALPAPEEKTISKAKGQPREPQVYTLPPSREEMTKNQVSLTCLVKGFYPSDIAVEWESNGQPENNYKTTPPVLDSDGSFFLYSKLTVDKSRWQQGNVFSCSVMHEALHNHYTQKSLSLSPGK
light: DIVMTQSPLSLPVTLGQPASISCRSSKSLLHSNAKIYLYWFQQRPGQSPRLLIYRMSNLASGVPDRFSGSGSGTDFTLKISRVEAEDVGVYYCMQHLEYPLTFGQGTKLEIKRTVAAPSVFIFPPSDEQLKSGTASVVCLLNNFYPREAKVQWKVDNALQSGNSQESVTEQDSKDSTYSLSSTLTLSKADYEKHKVYACEVTHQGLSSPVTKSFNRGEC
In the case of B1, the EC50 in the test with human CCR8 is 0.49 nM; with cynomolgus monkey CCR8 [1], 0.44 nM. Also, binding in the test with cynomolgus monkey CCR8 [2] was put at a Kd of 0.0493 nM.
